# According to patent US20240358755A1 (IMMATICS BIOTECHNOLOGIES, published 2024):
# Tests used:
# HLA-A*24:02 = molecular target: T1, HLA-A*24:02 (human); assay: allele assigned to HLA ligand eluted from tissue (IP, LC-MS)
# T1 construct: Peptide-receptive MHC class I monomer in the UV-ligand exchange assay
# HLA-B*44:05 = HLA-B*44:05 (human); assay: UV peptide exchange, anti-b2m ELISA; exchange yield grade
# From the text: (§1) Candidate peptides for T cell based therapies according to the present invention were further tested for their MHC binding capacity (affinity). The individual peptide-MHC complexes were produced by UV-ligand exchange, where a UV-sensitive peptide is cleaved upon UV-irradiation and exchanged with the peptide of interest as analyzed. Only peptide candidates that can effectively bind and stabilize the peptide-receptive MHC molecules prevent dissociation of the MHC complexes. To determine the yield of the exchange reaction, an ELISA was performed based on the detection of the light chain (β2m) of stabilized MHC complexes. The assay was performed as generally described in Rodenko et al. (Rodenko et al., 2006).
# (§2) 96 well MAXISorp plates (NUNC) were coated over night with 2 μg/ml streptavidin in PBS at room temperature, washed 4× and blocked for 1 h at 37° C. in 2% BSA containing blocking buffer. […] Peptide-MHC monomers of the UV-exchange reaction were diluted 100-fold in blocking buffer. Samples were incubated for 1 h at 37° C., washed four times, incubated with 2 μg/ml HRP conjugated anti-β2m for 1 h at 37° C., washed again and detected with TMB solution that is stopped with […]. Absorption was measured at 450 nm.
# HLA-A*02:01 = molecular target: T2, HLA-A*02:01 (human); assay: as above
# T2 construct: Peptide-receptive MHC class I monomer in the UV-ligand exchange assay
# From the text: as §1, §2
# HLA-A*01:01 = molecular target: T3, HLA-A*01:01 (human); assay: as above
# T3 construct: Peptide-receptive MHC class I monomer: a UV-sensitive peptide (not specified) is cleaved and exchanged with the test peptide
# From the text: as §1, §2
Binder,binding result (HLA-A*24:02),binding result (HLA-B*44:05),also measured
VFVISGSHLF,binds,,
LWEEKPVCL,binds,,
VEAPHLPSF,,binds,
LWALAIPSL,binds,,
FALGPIIKQL,,,peptide exchange yield (HLA-A*02:01): 50 to 75%
LLDSWNILI,,,peptide exchange yield (HLA-A*02:01): ≥ 75%
VEGVHFVQLL,,binds,
WETRLHNLW,,binds,
KEIEAQEAA,,binds,
VYIASSFKI,binds,,
ILAPPQRISF,binds,,
AEGPDHHSL,,binds,
IYLTKSNLVNM,binds,,
VLYPSHSSF,binds,,
RELGVGIAL,,binds,
TEIGTVIKLF,,binds,
RLLRLIPIL,,,peptide exchange yield (HLA-A*02:01): ≥ 75%
IWRALGSLF,binds,,
AETKQFWSA,,binds,
ILVTAWKGV,,,peptide exchange yield (HLA-A*02:01): 50 to 75%
REVAGASAL,,binds,
AWNESSAWLL,binds,,
KEFAFLEHSL,,binds,
ASSPVILLL,,,peptide exchange yield (HLA-A*01:01): 20 to 50%
KFPPSASEF,binds,,
GLLGTLRVL,,,peptide exchange yield (HLA-A*02:01): ≥ 75%
IFTGRNAYF,binds,,

Binder,binding result (HLA-A*24:02),binding result (HLA-B*44:05),also measured
EYLGSENVF,binds,,
TEMSVSALY,,binds,
SHSSPTVSF,binds,,
LYLETRSEF,binds,,
EEGRIITKW,,binds,
VWILQKVNLAF,binds,,
FYNPRPPLI,binds,,
HLFSVLSAI,,,peptide exchange yield (HLA-A*02:01): ≥ 75%
QYLTYYPSF,binds,,
SQAKQITIW,,binds,
ALNLSRLTV,,,peptide exchange yield (HLA-A*02:01): ≥ 75%
FDLNIGSAY,,binds,
REQLDGATL,,binds,
SYLKDHLSL,binds,,
METADRPEW,,binds,
SQIKSPVVF,binds,,
TYLESSVRI,binds,,
GEAAAARPV,,binds,
ETNTIEFIY,,,peptide exchange yield (HLA-A*01:01): ≥ 75%
KLPFFTNFL,,,peptide exchange yield (HLA-A*02:01): ≥ 75%
DVDIHKDLY,,,peptide exchange yield (HLA-A*01:01): ≥ 75%
LYDTVTHTF,binds,,
YMLEMDNSMKI,,,peptide exchange yield (HLA-A*02:01): ≥ 75%
VFLLLPYPRF,binds,,
FQLSGPVTF,binds,,
ITPDSIPSV,,,peptide exchange yield (HLA-A*02:01): 50 to 75%
NFHTLAQQLLF,binds,,
